Publication PMC8249470, “Binding of guide piRNA triggers methylation of the unstructured N-terminal region of Aub leading to assembly of the piRNA amplification complex” (Nature Communications, 2021)
Where no end group is shown, it is not given here. [ ]: non-standard residue; d: D form. Arg(Me2s) = CN=C(NC)NCCC[C@H](N)C(=O)O

How the values were obtained:
[1] = target: Krimper eTud1 (residues 272-512) (Drosophila melanogaster) (UniProt A1ZAC4); test: ITC; Malvern PEAQ ITC; 50 mM NaCl, 20 mM HEPES pH 7.5, 2 mM β-mercaptoethanol; Krimper Tudor domain with peptides
[2] = target: T1, Krimper eTud1 (residues 272-512) (Drosophila melanogaster, UniProt A1ZAC4); test: ITC analysis of Krimper eTud1 with Ago3 or Aub peptides; type: binding; conditions: Fig. 1f
T1 construct: Krimper eTud1 (residues 272-512) was cloned into a self-modified pSumo vector; 10xHis (N, cleaved yes); yeast SUMO (N, cleaved yes); made in house; host or cells: E. coli BL21(DE3) Rosetta
T1 sequence (A1ZAC4 272-512): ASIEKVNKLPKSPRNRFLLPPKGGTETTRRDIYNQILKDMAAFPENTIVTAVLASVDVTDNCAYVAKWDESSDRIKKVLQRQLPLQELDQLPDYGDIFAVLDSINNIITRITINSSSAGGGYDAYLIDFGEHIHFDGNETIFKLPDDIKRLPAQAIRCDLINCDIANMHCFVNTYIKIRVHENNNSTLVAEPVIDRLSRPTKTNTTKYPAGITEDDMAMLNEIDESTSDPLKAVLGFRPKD
Source text: However, the region of Krimper responsible for Ago3 binding remained unknown. To study the Ago3-Krimper interaction, we expressed and purified eTud1 and eTud2 domains of Krimper (Fig. 1c) and tested their binding to peptides derived from the N-terminal Ago3 sequence using isothermal titration calorimetry (ITC) (Fig. 1f and Supplementary Fig. 1a). […] Thus, the two Tudor domains of Krimper have different binding preferences ensuring that Aub and Ago3 can bind Krimper simultaneously without direct competition for a binding site.
Krimper eTud1 (residues 272-512) was cloned into a self-modified pSumo vector with 10×His tag followed by a yeast sumo sequence. The plasmid was transformed into E. coli strain BL21(DE3) Rosseta and cultured at 37 °C in LB medium. The protein expression was induced by adding IPTG to a final concentration of 0.2 mM when the OD600 reached 0.7, and the cells were cooled to 16 °C. The recombinant expressed protein was purified using a HisTrap column (GE Healthcare). The […] plus yeast sumo tag was removed by ulp1 protease digestion followed by a second step HisTrap column (GE Healthcare). The target protein was further purified using MonoQ and Superdex G75 columns (GE Healthcare).
All ITC was performed using the Malvern PEAQ ITC instrument (Malvern) in a buffer of 50 mM NaCl, 20 mM HEPES pH 7.5, and 2 mM β-mercaptoethanol. […]

Krimper eTud1ΔC = target: T2, Krimper eTud1ΔC (Drosophila melanogaster, UniProt A1ZAC4); type: binding; conditions: ITC, Fig. 1f, unmethylated Ago3-2 peptide
T2 construct: Krimper contains two extended Tudor domains: eTud1(272-512) and eTud2 (562-746); made in house
Method: All ITC was performed using the Malvern PEAQ ITC instrument (Malvern) in a buffer of 50 mM NaCl, 20 mM HEPES pH 7.5, and 2 mM β-mercaptoethanol. Data analysis was performed using the Malvern data analysis software and Origin 7.0.

[3] = target: T3, Krimper eTud2 (residues 562-746) (Drosophila melanogaster, UniProt A1ZAC4 562-746); test: ITC; R15me2
T3 chain: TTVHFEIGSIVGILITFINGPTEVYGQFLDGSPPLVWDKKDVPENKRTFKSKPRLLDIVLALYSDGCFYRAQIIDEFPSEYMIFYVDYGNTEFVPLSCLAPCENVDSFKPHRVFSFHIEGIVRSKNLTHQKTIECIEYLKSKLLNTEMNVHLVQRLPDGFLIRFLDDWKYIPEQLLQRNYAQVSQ

[4] = target: T3, Krimper eTud2 (residues 562-746); test: ITC; R72me2
[5] = target: T3, Krimper eTud2 (residues 562-746); test: ITC; R70me2
[6] = target: T3, Krimper eTud2 (residues 562-746); test: ITC; R68me2

Ago3-2 peptide (aa residues 63-78 of Ago3) (from UniProt Q7PLK0 63-78)
Kd [1]: 62.8 µM

H-NPVIARGRGRGRK-OH [Aub-1, unmethylated peptide from the N-terminal RG-repeat region of Aub used for ITC and structural analysis]
binding to eTud1 (in words) [2]: does not detectably interact

NISVGRGRARLIDTLK [Ago3-2]
binding affinity of eTud1 ΔC compared with eTud1 (in words) (Krimper eTud1ΔC): higher binding affinity

NPVIARGRGRGRK (also: symmetric dimethylarginine at R15) [Aub-R15me2 peptide]
Kd [3]: 8.26 µM

NISVGRGRA[Arg(Me2s)]LIDTLK [Ago3-2 peptide methylated at R72]
Kd [4]: 34.5 µM

NISVGRG[Arg(Me2s)]ARLIDTLK [Ago3-2 peptide methylated at R70]
Kd [5]: 2.2 µM

NISVG[Arg(Me2s)]GRARLIDTLK [Ago3-2 peptide methylated at R68]
Kd [6]: 6.67 µM
